Results reported in doi:10.1101/2021.02.05.429362 (bioRxiv, 2021).
Several values for one entry are separate records, joined by “and”; a condition that tells them apart may be missing. Equal values may be shown once. Read-outs that look alike come from different tables or passages of the source. Where no end group is shown, it is not given here.

Columns and labels:
[1] = target: T1, G3BP1-NTF2 (residues 1-139) (human (by the printed UniProt entry …)); experiment: ITC
G3BP1-NTF2 H31A = G3BP1-NTF2 H31A (human (by the printed UniProt entry …, UniProt Q13283, H31A)); experiment: ITC
[2] = target: T1, G3BP1-NTF2 (residues 1-139); experiment: ITC; remark: listed apart in the source
[3] = target: T1, G3BP1-NTF2 (residues 1-139); experiment: ITC; remark: listed apart in the source
[4] = target: T1, G3BP1-NTF2 (residues 1-139); experiment: nanoDSF
[5] = target: T1, G3BP1-NTF2 (residues 1-139); experiment: nanoDSF; remark: listed apart in the source
[6] = target: T1, G3BP1-NTF2 (residues 1-139); experiment: nanoDSF; remark: listed apart in the source

G3BP1-NTF2 H31A (human, sequence (Q13283 1-139 H31A): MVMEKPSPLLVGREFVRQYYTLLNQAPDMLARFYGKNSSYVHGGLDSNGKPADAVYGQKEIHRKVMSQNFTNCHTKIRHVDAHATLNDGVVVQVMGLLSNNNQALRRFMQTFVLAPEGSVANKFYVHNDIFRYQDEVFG

Row | Binder | dH [1] | Kd (G3BP1-NTF2 H31A) | dH (G3BP1-NTF2 H31A) | Kd [2] | Kd [3] | dTm [4] | dTm [5] | dTm [6] | Kd [1]
1 | MALHSPQYIFGDFSPDEFNQFFVTPRSS (domain or fragment) [GFP-USP10^1-28] | -17 ± 1 kcal/mol | 3000 nM | -18 kcal/mol | 500 nM | 1500 ± 500 nM | – | – | – | –
2 | RQRVQDLMAQMQGPYNFIQDSMLDFENQTLD [Caprin-1^356-386 peptide] | – | – | – | – | – | 1.3 °C | 4 °C | 1.5 °C | –
3 | {GFP}-RQRVQDLMAQMQGPYNFIQDSMADFENQTLD (domain or fragment) [GFP-Caprin-1^356-386 L378A] | – | – | – | – | – | – | – | – | ~20000 nM
4 | {GFP}-RQRVQDLMAQMQGPYNFIQDSMLDFENQTLD (domain or fragment) [GFP-Caprin-1^356-386] | -18 kcal/mol and -17 kcal/mol | 15000 nM | -16 kcal/mol | 1400 nM | 4000 ± 2000 nM | – | – | – | –
